The values that follow come from patent US20200339648A1 (University of Washington, published 2020).

T1: human IL-2Rβγc on human cells (YT-1 NK cells) (human, UniProt P14784 27-551; P31785 23-369)
T1 sequence (looked up) 1: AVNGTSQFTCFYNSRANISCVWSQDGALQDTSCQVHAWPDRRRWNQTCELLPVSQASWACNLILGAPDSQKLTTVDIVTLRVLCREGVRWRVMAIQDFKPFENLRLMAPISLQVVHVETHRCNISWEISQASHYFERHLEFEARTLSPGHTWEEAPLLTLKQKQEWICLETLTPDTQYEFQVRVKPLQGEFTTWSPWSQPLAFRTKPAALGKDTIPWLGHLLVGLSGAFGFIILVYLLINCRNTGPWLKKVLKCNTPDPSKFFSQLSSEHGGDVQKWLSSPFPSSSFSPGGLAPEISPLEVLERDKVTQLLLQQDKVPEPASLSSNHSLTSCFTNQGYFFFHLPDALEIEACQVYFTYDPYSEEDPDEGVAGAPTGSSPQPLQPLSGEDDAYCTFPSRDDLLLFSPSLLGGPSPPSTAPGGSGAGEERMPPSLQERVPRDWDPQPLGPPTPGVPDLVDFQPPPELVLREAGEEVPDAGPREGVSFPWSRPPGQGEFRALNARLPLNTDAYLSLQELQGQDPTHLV
T1 sequence (looked up) 2: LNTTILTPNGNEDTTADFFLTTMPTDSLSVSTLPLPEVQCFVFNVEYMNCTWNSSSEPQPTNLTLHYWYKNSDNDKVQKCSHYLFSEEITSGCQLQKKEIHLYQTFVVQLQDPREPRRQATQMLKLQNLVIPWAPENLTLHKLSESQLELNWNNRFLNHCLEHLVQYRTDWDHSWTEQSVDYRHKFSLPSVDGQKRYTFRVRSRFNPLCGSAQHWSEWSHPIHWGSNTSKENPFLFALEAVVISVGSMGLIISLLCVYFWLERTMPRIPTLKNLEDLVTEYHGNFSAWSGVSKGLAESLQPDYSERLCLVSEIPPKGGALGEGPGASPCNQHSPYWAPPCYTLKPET

T2: mouse IL-2Rβγc on murine cells (CTLL-2 T cells, primary CD4+ T cells) (mouse, UniProt P16297 27-539; P34902 23-369)
T2 sequence (looked up) 1: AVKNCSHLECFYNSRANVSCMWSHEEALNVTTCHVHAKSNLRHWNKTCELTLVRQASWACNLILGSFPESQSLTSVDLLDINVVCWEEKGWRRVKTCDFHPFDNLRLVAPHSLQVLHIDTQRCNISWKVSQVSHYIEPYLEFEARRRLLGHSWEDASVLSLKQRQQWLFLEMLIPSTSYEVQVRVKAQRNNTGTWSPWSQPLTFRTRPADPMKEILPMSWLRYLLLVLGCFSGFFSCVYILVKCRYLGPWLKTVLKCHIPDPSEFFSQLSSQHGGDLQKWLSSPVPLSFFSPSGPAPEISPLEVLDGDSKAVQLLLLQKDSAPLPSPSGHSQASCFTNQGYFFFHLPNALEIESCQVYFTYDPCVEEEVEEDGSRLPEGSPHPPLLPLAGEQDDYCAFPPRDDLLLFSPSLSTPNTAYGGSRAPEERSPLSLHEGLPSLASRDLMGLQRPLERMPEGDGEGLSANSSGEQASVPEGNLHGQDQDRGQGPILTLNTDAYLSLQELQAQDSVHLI
T2 sequence (looked up) 2: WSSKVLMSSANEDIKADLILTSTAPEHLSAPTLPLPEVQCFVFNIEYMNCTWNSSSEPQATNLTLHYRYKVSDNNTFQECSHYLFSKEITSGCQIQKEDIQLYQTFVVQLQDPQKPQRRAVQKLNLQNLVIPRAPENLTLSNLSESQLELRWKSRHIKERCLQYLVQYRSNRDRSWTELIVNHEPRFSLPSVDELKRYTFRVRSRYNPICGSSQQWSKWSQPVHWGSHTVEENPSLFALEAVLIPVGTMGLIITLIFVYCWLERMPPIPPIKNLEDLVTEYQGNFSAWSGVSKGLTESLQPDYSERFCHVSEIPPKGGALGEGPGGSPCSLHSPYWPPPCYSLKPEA

B1: G1_neo2_40_1F (designed binder)
chain: STKKTQLLAEHALLDALMMLNLLPEPNEKLNRIITTMQSWIFTGKIDGDGAQELAKEVEELEQEHEKRGIDVEDYASNLKVILLELA
notes: also called G1_ne02_40_1F
B2: mouse interleukin-2 (mIL-2) (ligand, UniProt P04351 21-169, looked up)
chain: APTSSSTSSSTAEAQQQQQQQQQQQQHLEQLLMDLQELLSRMENYRNLKLPRMLTFKFYLPKQATELKDLQCLEDELGPLRHVLDLTQSKSFQLEDAENFISNIRVTVVKLKGSDNTFECQFDDESATVVDFLRRWIAFCQSIISTSPQ
notes: range 1-149; Baculovirus expression for SPR; also called MmIL-2; mouse IL-2
B3: G2_neo2_40_1F_dsn36 (designed binder)
chain: PKKKIQLLAEHALLDALMILNIVKTNSQNAEEKLEDYASNVEVILEEIARLMESGDQKDEAEKAKRMKEWMKRIKTTASEDEQEEMANRIITLLQSWIFS
notes: E. coli, N-terminal 6xHis tag and thrombin site

For one assay, the target named is T1, human IL-2Rβγc on human cells (YT-1 NK …). Briefly: cell-based or functional assay.
Regarding B1, the “EC50 (CD25-) pSTAT5p, human NK (YT, CD25-) cells” value was determined as 0.09 nM.
The same measure, in the same setting: in the case of B2 it was 39 nM; in that of B3, 0.12 nM.

A further assay deals with T2, mouse IL-2Rβγc on murine cells (CTLL-2 …). Briefly: cell-based or functional assay.
As for B1, the “EC50 (CD25+) pSTAT5, murine T (CTLL-2, CD25+) cells” value turned out to be 0.2 nM.
Same read-out and setting: then B2, with 0.003 nM; and B3, with 1.36 nM.
